Measurements: patent publication US20240228562A1, “NOVEL LIPOCALIN MUTEINS SPECIFIC FOR CONNECTIVE TISSUE GROWTH FACTOR (CTGF)” (PIERIS PHARMACEUTICALS GMBH, priority 2021, published 2024)

Experiments:
[1] = Thermal stability assessment by nanoDSC; assay type: physicochemical; conditions: 1 mg/mL in PBS, scan 25-100° C. at 1° C./min
Outline: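 CTGF-specific lipocalin muteins at 1 mg/mL in PBS scanned from 25 to 100° C at 1° C/min by capillary nano-DSC. Where several transitions occur, the Tm of the major unfolding event is reported, along with onset temperature. Some muteins were expressed in E. coli, others in CHO cells.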

CTGF = biological target: T1, CTGF (Homo sapiens, UniProt P29279); test: Specificity ELISA (CCN proteins), human CTGF; assay type: binding; conditions: coated 1 μg/ml, muteins from 1000 nM
T1 sequence (P29279 27-349): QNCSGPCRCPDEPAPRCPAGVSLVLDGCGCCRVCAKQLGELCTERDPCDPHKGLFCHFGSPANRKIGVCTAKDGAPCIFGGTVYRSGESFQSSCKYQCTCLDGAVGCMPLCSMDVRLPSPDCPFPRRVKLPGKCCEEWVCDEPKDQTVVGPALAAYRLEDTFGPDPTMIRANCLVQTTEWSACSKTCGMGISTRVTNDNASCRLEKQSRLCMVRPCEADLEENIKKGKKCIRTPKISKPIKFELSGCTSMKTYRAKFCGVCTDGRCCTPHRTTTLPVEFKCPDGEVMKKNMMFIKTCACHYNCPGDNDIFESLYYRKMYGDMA
Protocol: (§1) Binding of muteins to closely related proteins of CTGF was tested by an ELISA assay. In detail, a 384-well plate suitable for fluorescence measurements (Greiner FLUOTRAC™ 600, black flat bottom, high-binding) was coated with 20 μl of human CTGF or the other members of the CCN protein family at a concentration of 1 μg/ml in PBS over night at 4° C. After washing with PBS with 0.05% Tween 20, wells were blocked with 100 μl blocking buffer containing 0.1% Tween 20 and 2% BSA (PBS-T/BSA) for 1 h at room temperature. 20 μl of serially diluted muteins starting at 1000 nM were incubated in PBS-T/BSA for 1 h at room temperature (RT).
(§2) The residual supernatants were discarded and 20 μl HRP-labeled anti-NGAL or anti-Strep-Tag antibody was added at a predetermined optimal concentration in PBS-T/BSA and incubated for 1 h at RT. After washing, 20 μl fluorogenic HRP substrate (QuantaBlu, Thermo) was added to each well, and the reaction was allowed to proceed for 2 to 60 minutes. The fluorescence intensity of every well on the plate was read using a fluorescence microplate reader (Tecan). When the signal for human CTGF approached saturation, the cross reactivity to the other proteins was assessed.

huCYR61 = biological target: T2, huCYR61 (Homo sapiens, UniProt O00622); test: Specificity ELISA (CCN proteins), huCYR61; assay type: binding; conditions: coated 1 μg/ml; assessed when human CTGF signal approached saturation
T2 sequence (O00622 25-381): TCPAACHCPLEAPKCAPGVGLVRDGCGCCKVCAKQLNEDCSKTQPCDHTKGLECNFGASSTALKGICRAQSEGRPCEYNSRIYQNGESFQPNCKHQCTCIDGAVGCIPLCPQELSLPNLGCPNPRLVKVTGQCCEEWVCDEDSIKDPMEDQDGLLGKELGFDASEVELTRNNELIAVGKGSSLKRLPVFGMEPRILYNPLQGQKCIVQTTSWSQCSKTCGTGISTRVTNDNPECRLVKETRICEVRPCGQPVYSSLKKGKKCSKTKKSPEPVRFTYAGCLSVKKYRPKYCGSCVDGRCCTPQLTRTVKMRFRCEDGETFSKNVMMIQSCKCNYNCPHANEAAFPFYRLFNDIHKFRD
Protocol: as §1, §2

huNOV = biological target: T3, huNOV (Homo sapiens, UniProt P48745); test: Specificity ELISA (CCN proteins), huNOV; assay type: binding; conditions: coated 1 μg/ml; assessed when human CTGF signal approached saturation
T3 sequence (P48745 32-357): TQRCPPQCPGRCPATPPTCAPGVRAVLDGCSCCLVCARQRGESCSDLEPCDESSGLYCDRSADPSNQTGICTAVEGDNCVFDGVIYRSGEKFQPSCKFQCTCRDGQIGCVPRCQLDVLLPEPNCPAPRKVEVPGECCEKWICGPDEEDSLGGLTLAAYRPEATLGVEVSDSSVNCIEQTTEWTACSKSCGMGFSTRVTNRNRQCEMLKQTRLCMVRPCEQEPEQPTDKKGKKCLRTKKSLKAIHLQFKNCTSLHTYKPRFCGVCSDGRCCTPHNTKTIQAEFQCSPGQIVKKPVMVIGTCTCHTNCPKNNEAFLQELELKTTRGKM
Protocol: as §1, §2

huWISP-1 = biological target: T4, huWISP-1 (Homo sapiens, UniProt O95388); test: Specificity ELISA (CCN proteins), huWISP-1; assay type: binding; conditions: coated 1 μg/ml; assessed when human CTGF signal approached saturation
T4 sequence (O95388 23-367): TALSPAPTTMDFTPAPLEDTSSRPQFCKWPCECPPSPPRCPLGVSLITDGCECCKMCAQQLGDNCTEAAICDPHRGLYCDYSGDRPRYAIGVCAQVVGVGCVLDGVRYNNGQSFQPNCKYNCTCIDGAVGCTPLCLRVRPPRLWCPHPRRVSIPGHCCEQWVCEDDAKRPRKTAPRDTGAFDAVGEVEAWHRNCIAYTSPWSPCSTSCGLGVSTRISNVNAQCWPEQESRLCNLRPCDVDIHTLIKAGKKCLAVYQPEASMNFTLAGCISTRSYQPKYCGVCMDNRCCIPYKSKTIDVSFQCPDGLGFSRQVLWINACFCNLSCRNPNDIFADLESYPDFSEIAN
Protocol: as §1, §2

huWISP-2 = biological target: T5, huWISP-2 (Homo sapiens, UniProt O76076); test: Specificity ELISA (CCN proteins), huWISP-2; assay type: binding; conditions: coated 1 μg/ml; assessed when human CTGF signal approached saturation
T5 sequence (O76076 24-250): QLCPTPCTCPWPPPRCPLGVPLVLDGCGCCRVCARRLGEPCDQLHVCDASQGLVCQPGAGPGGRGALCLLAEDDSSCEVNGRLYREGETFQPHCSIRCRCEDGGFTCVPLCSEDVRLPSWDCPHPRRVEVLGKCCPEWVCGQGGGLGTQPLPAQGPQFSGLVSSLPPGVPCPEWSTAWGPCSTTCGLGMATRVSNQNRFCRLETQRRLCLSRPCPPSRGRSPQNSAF
Protocol: as §1, §2

huWISP-3 = biological target: T6, huWISP-3 (Homo sapiens, UniProt O95389); test: Specificity ELISA (CCN proteins), huWISP-3; assay type: binding; conditions: coated 1 μg/ml; assessed when human CTGF signal approached saturation
T6 sequence (O95389 24-354): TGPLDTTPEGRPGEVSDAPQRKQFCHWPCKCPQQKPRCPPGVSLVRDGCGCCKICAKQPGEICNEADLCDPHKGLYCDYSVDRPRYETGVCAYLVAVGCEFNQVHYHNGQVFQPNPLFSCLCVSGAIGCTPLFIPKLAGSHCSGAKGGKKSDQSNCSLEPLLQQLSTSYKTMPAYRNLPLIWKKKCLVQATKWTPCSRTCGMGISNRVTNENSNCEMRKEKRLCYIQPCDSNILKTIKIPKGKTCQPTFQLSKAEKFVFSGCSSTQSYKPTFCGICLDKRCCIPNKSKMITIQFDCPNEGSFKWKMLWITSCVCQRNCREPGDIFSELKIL
Protocol: as §1, §2

B1: SEQ ID NO: 76: fusion protein comprising two CTGF-binding lipocalin muteins (protein)
chain: QDSTSDLIPAPPLSKVPLQQNFQDNQFQGKWYVVGLAGNAILREDKQPAKMFATIYELKEDKSYDVTSVRFEAKSCKYTIKTFVPGSQPGEFTAGYIKSAPGQTSTLVRVVSTNYNQHAMVFFKHVTQNREIFVITLYGRTKELTSELKENFIRFSKSLGLPENHIVFPVPIDQCIDGGGGGSGGGGSGGGGSQDSTSDLIPAPPLSKVPLQQNFQDNQFQGKWYVVGWAGNVKLREDKQPLKMSATIYELKEDKSYDVTEVVFEQKKCHYIIKTFVPGSQPGEFTAGDIKSPPGYTSSLVRVVSTNYNQHAMVFFKKVSQNREFFWITLYGRTKELTSELKENFIRFSKSLGLPENHIVFPVPIDQCIDG
modifications: fusion protein
ONSET MELTING [1]: 63 °C | TM ([1]; major transition): 73 °C | ELISA binding to HUMAN CTGF (CTGF): Binding | ELISA binding to huCYR61 (huCYR61): No binding | ELISA binding to huNOV (huNOV): No binding | ELISA binding to huWISP-1 (huWISP-1): No binding | ELISA binding to huWISP-2 (huWISP-2): No binding | ELISA binding to huWISP-3 (huWISP-3): No binding
